Changes are numbered by the printed parent chain. Where “and” joins values, the source holds several entries; their conditions need not be identical. Equal entries are not always repeated. Blank lines part the entries; values can stand above or below the binder they belong to.
What was measured:
[1] = molecular target: T1, recombinant Fc-TrkB antigen (human) (human, UniProt Q16620 32-430, limits assumed); test: SPR (Biacore S51), Fc-hTrkB amine-coupled to CM-5 chip, IgG in flow, global 1:1 Langmuir fit
T1 construct: Biotinylated for the ForteBio assays; also called Fc-hTrkB; human Fc-TrkB; not shown: Fc part
Method: Binding studies on the improved antibodies were performed by immobilizing Fc-hTrkB onto a Series S CM-5 Biacore sensor chip (certified) (Biacore #BR-1005-30). Covalent binding of the Fc-fusion protein was done with the ‘Amine Coupling Kit’ (Biacore #BR-1000-50). The Fc-Fusion protein was attached to the EDC-activated dextran surface at 5 μg/ml in 10 mM sodium acetate, pH 4.5 (Biacore #BR-1003-50) at a flow rate of 10 μL/min
A range of concentrations of improved antibodies were flowed over the Fc-TrkB captured chip in PBS plus 100 mM NaCl, 0.005% P20 (Biacore #BR-1000-54). The resulting sensorgrams were analyzed using the Biacore S51 Evaluation Software. Data from all concentrations was fitted globally to a 1:1 Langmuir model.
Although this antibody is bivalent, the binding was treated as a 1:1 event.

[2] = molecular target: T2, human TrkC-Fc fusion protein (human, UniProt Q16288 32-429, limits assumed); test: ELISA on Trk-hFc fusion proteins, goat anti-human Fab-HRP detection [panel C]
T2 construct: not shown: Fc part
Method: (§1) FIG. 9A-D illustrate ELISA assays showing specific binding of NVP-LFD253, NVP-LFD254, NVP-LFC325 and NVP-LFC327 to human TrkB-Fc fusion protein but not to human […] or TrkC-Fc fusion proteins. Purified IgG at 2 μg/ml was evaluated for specificity by examining its interaction with three different Trk family members (TrkA, TrkB and TrkC). Secondary Ab are replicates that were blocked and treated with only the goat-anti-human Fab-HRP detection Ab.
(§2) IgG with human V-segments (e.g., NVP-LFD253, NVP-LFD254, NVP-LFC325, and NVP-LFC327) bind specifically to TrkB but not to TrkA or TrkC. Purified IgG antibodies at 2 μg/ml were evaluated for specificity by examining its interaction with three different Trk family members (TrkA, TrkB and TrkC). Secondary Ab are replicates that were blocked and treated with only the goat-anti-human Fab-HRP detection Ab. As shown in FIG. 9A-D, none of LFD253, LFD254, LFC325 or LFC327 bind to either of these related Trk family receptors.

TrkA-Fc fusion protein [3] = molecular target: T3, TrkA-Fc fusion protein (human, UniProt P04629-2 34-407, limits assumed); test: as above
T3 construct: not shown: Fc part
Method: as §1, §2

[4] = molecular target: T1, recombinant Fc-TrkB antigen (human); test: BLI (ForteBio Octet), biotinylated Fc-TrkB on streptavidin sensors, IgG at 1E-8 M
Method: (§3) The binding kinetics of IgGs and Fab fragments were analyzed using a ForteBio Octet biosensor. Recombinant Fc-TrkB antigen was biotinylated using the EZ-link biotinylation kit (Pierce) according to the manufacturer's methods. The antigen was then coupled to streptavidin-coated sensors (ForteBio). Fab binding was monitored in real time using bio-layer interferometry analysis and software provided by the manufacturer. Affinities were calculated from the determined association and dissociation constants.
IgGs with human V-segments were also prepared from transient transfections of CHO cells. IgG preparations were purified and further characterized by kinetic comparison with the reference IgG A10F18.2. Binding kinetics for two of the IgGs with human V-segments were analyzed using a ForteBio Octet system for real-time label-free monitoring of protein-protein interactions.

[5] = molecular target: TrkB on rat intestinal epithelial (RIE)-TrkB cells; test: cell-based or functional assay
[6] = molecular target: T1, recombinant Fc-TrkB antigen (human); test: BLI (ForteBio Octet), biotinylated Fc-TrkB on streptavidin sensors, Fab at 1E-7 M
Method: as §3
(§4) Fabs with human V-segments were isolated from colony-lift binding assays and confirmed by antigen-binding ELISA. The Fab clones showing strong positive signals in antigen-binding ELISA were purified and further characterized by kinetic comparison with the reference Fab TR3-1. Binding kinetics were analyzed using a ForteBio Octet system for real-time label-free monitoring of protein-protein interactions.

[7] = molecular target: T1, recombinant Fc-TrkB antigen (human); test: as above; remark: listed apart in the source
Method: as §3, §4

[8] = molecular target: T2, human TrkC-Fc fusion protein; test: ELISA on Trk-hFc fusion proteins, goat anti-human Fab-HRP detection [panel A]
Method: as §1, §2

TrkA-Fc fusion protein [9] = molecular target: T3, TrkA-Fc fusion protein; test: as above
Method: as §1, §2

[10] = molecular target: T2, human TrkC-Fc fusion protein; test: ELISA on Trk-hFc fusion proteins, goat anti-human Fab-HRP detection [panel B]
Method: as §1, §2

TrkA-Fc fusion protein [11] = molecular target: T3, TrkA-Fc fusion protein; test: as above
Method: as §1, §2

[12] = molecular target: T2, human TrkC-Fc fusion protein; test: ELISA on Trk-hFc fusion proteins, goat anti-human Fab-HRP detection [panel D]
Method: as §1, §2

TrkA-Fc fusion protein [13] = molecular target: T3, TrkA-Fc fusion protein; test: as above
Method: as §1, §2

[14] = molecular target: T1, recombinant Fc-TrkB antigen (human); test: blocking ELISA on coated Fc-TrkB; blocked molecule: Fab TR151-1 at 50 nM, detected with anti-human kappa-HRP [upper panel]
[15] = molecular target: T1, recombinant Fc-TrkB antigen (human); test: blocking ELISA on coated Fc-TrkB; blocked molecule: Fab TR3-1 at 50 nM (two replicate series), detected with anti-human kappa-HRP [upper panel]

B1: NVP-LFC325 (antibody, human IgG1, V domains shown)
VH: QVQLVQSGAEVKKPGASVKVSCKASGYTFTAYDMHWVRQAPGQGLEWMGWIDPNSGGTRYAQKFQGRVTMTRDTSISTAYMELSRLTSDDTAVYYCTGVTTWFAYWGQGTLVTVSS
VL: DIVMTQTPLSLPVTLGQPASISCRSSQSLLHSNGNTYLNWYQQTPGQPPRLLIYKISNRFSGVPDRFSGSGAGTDFTLKISRVEAEDVGVYYCMQGTHVPYTFGQGKLEIK
notes: IgG with human IgG1 constant region and human kappa constant region, from transiently transfected CHO cells; also called TR127 Vh & TR119 Vk
- Kd [1]: 0.114 nM
- koff [1]: 4.85e-05 s⁻¹
- kon [1]: ~425000 M⁻¹ s⁻¹
- binding result [2]: no binding (tested: 2 ug/ml)
- binding result (TrkA-Fc fusion protein [3]): no binding (tested: 2 ug/ml)
- Kd [4]: 0.0335 nM
- koff [4]: 1.52e-05 s⁻¹
- kon [4]: 453000 M⁻¹ s⁻¹
- EC50, anoikis assay on RIE-TrkB cells [5]: 41.8 ng/ml and 280 pM

B2: Fab TR135-8 (Fab, V domains shown)
VH: B1 VH
VL: MDVVMTQSPLSLPVTLGQPASISCRSSQSLVHSNGNTYLNWYQQKPGQPPRLLIYKISNRFSGVPDRFSGSGAGTDFTLKISRVEAEDVGVYYCMQGTHEPYTFGQGKLEIK
notes: Fab with human V-segments, expressed in E. coli; detected with anti-human kappa
- Kd [6]: 32.3 nM
- koff [6]: 0.00439 s⁻¹
- kon [6]: 136000 M⁻¹ s⁻¹
- Kd [7]: 31.9 nM
- koff [7]: 0.00458 s⁻¹
- kon [7]: 144000 M⁻¹ s⁻¹

B5: Fab TR134-4 (Fab, V domains shown)
VH: B1 VH
VL: B2 VL with V31L, K45T
notes: Fab with human V-segments, expressed in E. coli
- Kd [7]: 35.6 nM
- koff [7]: 0.00422 s⁻¹
- kon [7]: 118000 M⁻¹ s⁻¹

B6: NVP-LFD254 (antibody, human IgG1, V domains shown)
VH: B1 VH with N54R, G57D, R59S, A61K, S84H, T87R
VL: B1 VL
notes: IgG with human IgG1 constant region and human kappa constant region, from transiently transfected CHO cells; also called TR143 Vh & TR119 Vk
- Kd [1]: 0.117 nM
- koff [1]: 1.94e-05 s⁻¹
- kon [1]: 166000 M⁻¹ s⁻¹
- binding result [10]: no binding (tested: 2 ug/ml)
- binding result (TrkA-Fc fusion protein [11]): no binding (tested: 2 ug/ml)
- EC50, anoikis assay on RIE-TrkB cells [5]: 24 ng/ml and 160 pM

B8: Fab TR151-1 (Fab, V domains shown)
VH: B1 VH with T97A, T101S
VL: B2 VL with N40S, Y42L, K45R
notes: as for B5
- Kd [6]: 18.6 nM
- koff [6]: 0.00395 s⁻¹
- kon [6]: 213000 M⁻¹ s⁻¹

B9: NVP-LFC327 (antibody, human IgG1, V domains shown)
VH: B1 VH
VL: B1 VL with T7S, L30V, T44K, V99E
notes: IgG with human IgG1 constant region and human kappa constant region, from transiently transfected CHO cells; also called TR127 Vh & TR129 Vk
- binding result [12]: no binding (tested: 2 ug/ml)
- binding result (TrkA-Fc fusion protein [13]): no binding (tested: 2 ug/ml)
- Kd [1]: 0.146 nM
- koff [1]: 5.76e-05 s⁻¹
- kon [1]: 393000 M⁻¹ s⁻¹
- Kd [4]: 0.0197 nM
- koff [4]: 7.9e-06 s⁻¹
- kon [4]: 401000 M⁻¹ s⁻¹
- EC50, anoikis assay on RIE-TrkB cells [5]: 26.9 ng/ml and 180 pM

B10: A10F18.2 IgG (antibody, V domains shown)
VH: QVQLQQSGAELVRPGASVTLSCKASGYTFTDYEMHWVKQTPVHGLEWIGTIDPETAGTAYNQKFKGKAILTAGKSSSTAYMELRSLTSEDSAVYYCTGVTTWFAYWGQGTLVTVSA
VL: DVVMTQTPLSLPVSLGDQASISCRSSQSLVHSNGNTYLHWYLQKPGQSPNLLIYKVSNRFSGVPDRFSGSGSGTDFTLKISRVEAEDLGVYFCSQGTHVPYTFGGGTKLEIKR
- IC50 (read off the curve) [14]: ~5 nM
- IC50 (read off the curve) [15]: ~6 nM
- Kd [4]: 0.0379 nM and 0.0477 nM
- koff [4]: 1.44e-05 s⁻¹ and 1.89e-05 s⁻¹
- kon [4]: 379000 M⁻¹ s⁻¹ and 396000 M⁻¹ s⁻¹

Now from value to binder:

- Kd [6]: 15.1 nM
- koff [6]: 0.00317 s⁻¹
- kon [6]: 211000 M⁻¹ s⁻¹
- Kd [7]: 14.2 nM
- koff [7]: 0.00334 s⁻¹
- kon [7]: 235000 M⁻¹ s⁻¹
B3: Fab TR139-2 (Fab, V domains shown)
VH: B1 VH
VL: B2 VL with N40S, Y42L, K45R
notes: as for B5

- Kd [1]: 0.165 nM
- koff [1]: 3.25e-05 s⁻¹
- kon [1]: 197000 M⁻¹ s⁻¹
- binding result [8]: no binding (tested: 2 ug/ml)
- binding result (TrkA-Fc fusion protein [9]): no binding (tested: 2 ug/ml)
- EC50, anoikis assay on RIE-TrkB cells [5]: 4.1 ng/ml and 28 pM
B4: NVP-LFD253 (antibody, human IgG1, V domains shown)
VH: B1 VH
VL: B1 VL with L30V, N39S, Y41L, T44R, V99E
notes: IgG with human IgG1 constant region and human kappa constant region, from transiently transfected CHO cells; also called TR127 Vh & TR137 Vk

- Kd [6]: 31.1 nM
- koff [6]: 0.00392 s⁻¹
- kon [6]: 126000 M⁻¹ s⁻¹
- Kd [7]: 29.7 nM
- koff [7]: 0.00366 s⁻¹
- kon [7]: 123000 M⁻¹ s⁻¹
B7: Fab TR144-1 (Fab, V domains shown)
VH: B1 VH with N54R, G57D, R59S, A61K, S84H, T87R
VL: B2 VL
notes: as for B5

— US20110097326A1 (IRM, published 2011)
